Measured values as given in paper PMC11352979, “The mycobacterium lipid transporter MmpL3 is dimeric in detergent solution, SMALPs and reconstituted nanodiscs†” (RSC Chemical Biology, 2024).

Target: the molecule itself
Assay: SEC + native gel or EMSA

B1: C-terminally truncated Mycobacterium tuberculosis MmpL3 (ΔC Mtb-MmpL3, aa 1–753) (domain or fragment)
chain: MFAWWGRTVYRYRFIVIGVMVALCLGGGVFGLSLGKHVTQSGFYDDGSQSVQASVLGDQVYGRDRSGHIVAIFQAPAGKTVDDPAWSKKVVDELNRFQQDHPDQVLGWAGYLRASQATGMATADKKYTFVSIPLKGDDDDTILNNYKAIAPDLQRLDGGTVKLAGLQPVAEALTGTIATDQRRMEVLALPLVAVVLFFVFGGVIAAGLPVMVGGLCIAGALGIMRFLAIFGPVHYFAQPVVSLIGLGIAIDYGLFIVSRFREEIAEGYDTETAVRRTVITAGRTVTFSAVLIVASAIGLLLFPQGFLKSLTYATIASVMLSAILSITVLPACLGILGKHVDALGVRTLFRVPFLANWKISAAYLNWLADRLQRTKTREEVEAGFWGKLVNRVMKRPVLFAAPIVIIMILLIIPVGKLSLGGISEKYLPPTNSVRQAQEEFDKLFPGYRTNPLTLVIQTSNHQPVTDAQIADIRSKAMAIGGFIEPDNDPANMWQERAYAVGASKDPSVRVLQNGLINPADASKKLTELRAITPPKGITVLVGGTPALELDSIHGLFAKMPLMVVILLTTTIVLMFLAFGSVVLPIKATLMSALTLGSTMGILTWIFVDGHFSKWLNFTPTPLTAPVIGLIIALVFGLSTDYEVFLVSRMVEARERGMSTQEAIRIGTAATGRIITAAALIVAVVAGAFVFSDLVMMKYLAFGLMAALLLDATVVRMFLVPSVMKLLGDDCWWAPRWARRLQTRIGLGEIHLPD
notes: also called Mtb-MmpL3 ΔC; Mtb MmpL3 ΔC
binding result: binds
